# Test results taken from US20220025021A1 (BETH ISRAEL DEACONESS MEDICAL CENTER, published 2022).
# Residue numbers refer to the chain shown, from its start.
# B1: MS-83 (antibody, V domains shown)
# VH: QVQLVQSGPEVRKPGTSVKVSCKAPGNTLKTYDLHWVRSVPGQGLQWMGWISHEGDKKVIVERFKAKVTIDWDRSTNTAYLQLSGLTSGDTAVYYCAKGSKHRLRDYALYDDEGALNWAVDVDYLSNLEFWGQGTAVTVSS
# VL: DFVLTQSPHSLSVTPGESASISCKSSHSLIHGDRNNYLAWYVQKPGRSPQLLIYLASSRASGVPDRFSGSGSDKDFTLKISRVETEDVGTYYCMQGRESPWTFGQGTKVDIKR
# B2: MS-89 (antibody, V domains shown)
# VH: B1 VH with N27Y, D71T, E113D
# VL: B1 VL with H9L
# B3: MS-85 (antibody, V domains shown)
# VH: B1 VH with E113D
# VL: B1 VL with F2I, D73G, K74T
# B4: MS-91 (antibody, V domains shown)
# VH: B1 VH with P25S, N27Y, E113D
# VL: B1 VL with H9L, K74T
# B5: MS-87 (antibody, V domains shown)
# VH: B1 VH with D71T, W72R, E113D
# VL: B1 VL
# B6: MS-92 (antibody, V domains shown)
# VH: B1 VH with Q46E, W72R, T87R, E113D
# VL: B1 VL with F2I
# B7: MS-84 (antibody, V domains shown)
# VH: B1 VH with T87R, E113D
# VL: B1 VL with H9L, S12P, S18P, R47Q, T85A, T90V
# B8: MS-88 (antibody, V domains shown)
# VH: B1 VH with P25S, N27Y, L29F, D71T, W72R, E113D
# VL: B1 VL
# B9: MS-86 (antibody)
# VH: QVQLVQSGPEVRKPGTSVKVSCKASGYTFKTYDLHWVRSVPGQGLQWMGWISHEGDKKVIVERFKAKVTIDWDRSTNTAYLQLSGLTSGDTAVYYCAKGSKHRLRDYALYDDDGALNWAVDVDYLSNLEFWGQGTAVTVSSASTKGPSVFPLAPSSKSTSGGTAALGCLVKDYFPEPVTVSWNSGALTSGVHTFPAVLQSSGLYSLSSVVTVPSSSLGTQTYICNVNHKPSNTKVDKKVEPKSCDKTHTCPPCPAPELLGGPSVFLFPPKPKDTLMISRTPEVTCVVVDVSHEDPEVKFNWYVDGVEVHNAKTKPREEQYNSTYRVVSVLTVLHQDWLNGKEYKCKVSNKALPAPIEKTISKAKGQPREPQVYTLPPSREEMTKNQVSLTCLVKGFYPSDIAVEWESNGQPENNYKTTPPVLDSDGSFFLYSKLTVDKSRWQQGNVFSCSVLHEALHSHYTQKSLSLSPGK
# VL: DFVLTQSPHSLSVTPGESASISCKSSHSLIHGDRNNYLAWYVQKPGRSPQLLIYLASSRASGVPDRFSGSGSDKDFTLKISRVETEDVGTYYCMQGRESPWTFGQGTKVDIKRTVAAPSVFIFPPSDEQLKSGTASVVCLLNNFYPREAKVQWKVDNALQSGNSQESVTEQDSKDSTYSLSSTLTLSKADYEKHKVYACEVTHQGLSSPVTKSFNRGEC
# B10: MS-67 (antibody)
# VH: not shown
# VL: B9 VL with H9L
# B11: MS-66 (antibody)
# VH: not shown
# VL: B9 VL with F2I
# B12: MS-67 (antibody)
# VH: not shown
# VL: B9 VL with H9L
# B13: MS-90 (antibody)
# VH: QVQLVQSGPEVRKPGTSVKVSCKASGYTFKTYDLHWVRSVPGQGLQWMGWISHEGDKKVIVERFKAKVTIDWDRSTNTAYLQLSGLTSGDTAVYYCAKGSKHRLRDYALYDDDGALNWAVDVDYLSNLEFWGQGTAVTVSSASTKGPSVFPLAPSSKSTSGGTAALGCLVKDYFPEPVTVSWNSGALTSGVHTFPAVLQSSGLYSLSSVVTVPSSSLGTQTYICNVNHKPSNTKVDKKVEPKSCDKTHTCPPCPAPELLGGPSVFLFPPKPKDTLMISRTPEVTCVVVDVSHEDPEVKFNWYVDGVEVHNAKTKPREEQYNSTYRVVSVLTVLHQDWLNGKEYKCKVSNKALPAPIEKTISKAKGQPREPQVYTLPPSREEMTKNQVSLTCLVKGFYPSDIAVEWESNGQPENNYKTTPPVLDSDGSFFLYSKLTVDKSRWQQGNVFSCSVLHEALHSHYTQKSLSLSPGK
# VL: B9 VL with H9L
# B14: MS-66 (antibody)
# VH: not shown
# VL: B9 VL with F2I
# Tests used:
# Assay in all cases: cell-based or functional assay
# [1] = molecular target: HIV-1 Env of pseudovirus SC422661.8 (HIV-1)
# [2] = molecular target: HIV-1 Env of pseudovirus RHPA4259.7 (HIV-1)
# [3] = molecular target: HIV-1 Env of pseudovirus Du172.17 (HIV-1)
# [4] = molecular target: HIV-1 Env of pseudovirus BB1012-11.TC21 (HIV-1)
# [5] = molecular target: HIV-1 Env of pseudovirus CNE52 (HIV-1)
# [6] = molecular target: HIV-1 Env of pseudovirus 0260.v5.c36 (HIV-1)
# HIV-1 pseudovirus 263-8 = HIV-1 pseudovirus 263-8 (HIV-1)
# [7] = molecular target: HIV-1 pseudovirus SC05.8C11.2344 (HIV-1)
# [8] = molecular target: HIV-1 pseudovirus X1193_c1 (HIV-1)
# [9] = molecular target: HIV-1 pseudovirus Ce1176_A3 (HIV-1)
# [10] = molecular target: HIV-1 pseudovirus AC10.0.29 (HIV-1)
# [11] = molecular target: HIV-1 pseudovirus 6952.v1.c20 (HIV-1)
Binder,neutralization IC50 [1],neutralization IC80 [1],neutralization IC50 [2],neutralization IC80 [2],neutralization IC50 [3],neutralization IC80 [3],neutralization IC50 [4],neutralization IC80 [4],neutralization IC50 [5],neutralization IC80 [5],neutralization IC50 [6],neutralization IC80 [6],other results
B1,0.267 µg/mL,2.11 µg/mL,0.15 µg/mL,0.663 µg/mL,1.47 µg/mL,7.4 µg/mL,0.018 µg/mL,0.082 µg/mL,0.135 µg/mL,1.04 µg/mL,0.023 µg/mL,0.087 µg/mL,–
B2,0.786 µg/mL,> 25 µg/mL,0.29 µg/mL,1.04 µg/mL,11.9 µg/mL,> 25 µg/mL,0.032 µg/mL,0.143 µg/mL,2.34 µg/mL,23.8 µg/mL,0.036 µg/mL,0.197 µg/mL,–
B3,0.54 µg/mL,7.04 µg/mL,0.173 µg/mL,0.794 µg/mL,2.23 µg/mL,9.53 µg/mL,0.028 µg/mL,0.124 µg/mL,0.341 µg/mL,4.71 µg/mL,0.019 µg/mL,0.059 µg/mL,–
B4,1.66 µg/mL,22.1 µg/mL,0.267 µg/mL,1.82 µg/mL,3.85 µg/mL,23.9 µg/mL,0.037 µg/mL,0.17 µg/mL,1.41 µg/mL,10.6 µg/mL,0.046 µg/mL,0.171 µg/mL,–
B5,0.711 µg/mL,13.9 µg/mL,0.294 µg/mL,1.09 µg/mL,> 25 µg/mL,> 25 µg/mL,0.023 µg/mL,0.102 µg/mL,2.69 µg/mL,> 25 µg/mL,0.114 µg/mL,1.01 µg/mL,–
B6,1.53 µg/mL,> 25 µg/mL,0.25 µg/mL,1.16 µg/mL,6.85 µg/mL,> 25 µg/mL,0.029 µg/mL,0.127 µg/mL,3.92 µg/mL,> 25 µg/mL,0.044 µg/mL,0.35 µg/mL,–
B7,0.192 µg/mL,1.37 µg/mL,0.175 µg/mL,0.773 µg/mL,1.64 µg/mL,6.55 µg/mL,0.019 µg/mL,0.085 µg/mL,0.092 µg/mL,0.83 µg/mL,0.016 µg/mL,0.062 µg/mL,–
B8,1.41 µg/mL,> 25 µg/mL,0.504 µg/mL,2.51 µg/mL,> 25 µg/mL,> 25 µg/mL,0.02 µg/mL,0.088 µg/mL,5.86 µg/mL,> 25 µg/mL,0.178 µg/mL,1.51 µg/mL,–
B9,1.2 µg/mL,> 25 µg/mL,0.305 µg/mL,1.1 µg/mL,4.94 µg/mL,18.8 µg/mL,0.048 µg/mL,0.159 µg/mL,1.46 µg/mL,13.3 µg/mL,0.036 µg/mL,0.191 µg/mL,–
B10,0.549 µg/mL,2.83 µg/mL,0.129 µg/mL,0.706 µg/mL,1.76 µg/mL,9.31 µg/mL,0.017 µg/mL,0.071 µg/mL,0.212 µg/mL,1.81 µg/mL,0.023 µg/mL,0.088 µg/mL,–
B11,0.902 µg/mL,5.82 µg/mL,0.238 µg/mL,0.745 µg/mL,2.08 µg/mL,11.3 µg/mL,0.017 µg/mL,0.074 µg/mL,0.408 µg/mL,3.74 µg/mL,0.024 µg/mL,0.092 µg/mL,–
B12,–,–,–,–,–,–,–,–,–,–,–,–,IC50 (neutralization in TZM.bl cells) (HIV-1 pseudovirus 263-8): 0.011 µg/mL; IC80 (neutralization in TZM.bl cells) (HIV-1 pseudovirus 263-8): 0.037 µg/mL; IC50 (neutralization in TZM.bl cells) [7]: 0.631 µg/mL; IC80 (neutralization in TZM.bl cells) [7]: 2.14 µg/mL; IC50 (neutralization in TZM.bl cells) [8]: 0.075 µg/mL; IC80 (neutralization in TZM.bl cells) [8]: 0.303 µg/mL; IC50 (neutralization in TZM.bl cells) [9]: 0.105 µg/mL; IC80 (neutralization in TZM.bl cells) [9]: 1.9 µg/mL; IC50 (neutralization in TZM.bl cells) [10]: 0.031 µg/mL; IC80 (neutralization in TZM.bl cells) [10]: 0.186 µg/mL; IC50 (neutralization in TZM.bl cells) [11]: 0.28 µg/mL; IC80 (neutralization in TZM.bl cells) [11]: 7.89 µg/mL
B13,1.48 µg/mL,> 25 µg/mL,0.254 µg/mL,1.33 µg/mL,4.07 µg/mL,15.6 µg/mL,0.044 µg/mL,0.204 µg/mL,1.05 µg/mL,8.56 µg/mL,0.03 µg/mL,0.168 µg/mL,–
B14,–,–,–,–,–,–,–,–,–,–,–,–,IC50 (neutralization in TZM.bl cells) (HIV-1 pseudovirus 263-8): 0.017 µg/mL; IC80 (neutralization in TZM.bl cells) (HIV-1 pseudovirus 263-8): 0.06 µg/mL; IC50 (neutralization in TZM.bl cells) [7]: 0.811 µg/mL; IC80 (neutralization in TZM.bl cells) [7]: 2.54 µg/mL; IC50 (neutralization in TZM.bl cells) [8]: 0.086 µg/mL; IC80 (neutralization in TZM.bl cells) [8]: 0.322 µg/mL; IC50 (neutralization in TZM.bl cells) [9]: 0.165 µg/mL; IC80 (neutralization in TZM.bl cells) [9]: 5.43 µg/mL; IC50 (neutralization in TZM.bl cells) [10]: 0.035 µg/mL; IC80 (neutralization in TZM.bl cells) [10]: 0.213 µg/mL; IC50 (neutralization in TZM.bl cells) [11]: 0.284 µg/mL; IC80 (neutralization in TZM.bl cells) [11]: > 25 µg/mL
